Experimental findings from patent publication US20020193571A1 (published 2002) are described below.

The target in this experiment is T1, human WSX receptor (hWSXR), antigen of the phage antigen-binding ELISA (human, UniProt P48357 22-841).
T1 construct: both panning antigens hold the ECD; also called huWSXR
T1 sequence: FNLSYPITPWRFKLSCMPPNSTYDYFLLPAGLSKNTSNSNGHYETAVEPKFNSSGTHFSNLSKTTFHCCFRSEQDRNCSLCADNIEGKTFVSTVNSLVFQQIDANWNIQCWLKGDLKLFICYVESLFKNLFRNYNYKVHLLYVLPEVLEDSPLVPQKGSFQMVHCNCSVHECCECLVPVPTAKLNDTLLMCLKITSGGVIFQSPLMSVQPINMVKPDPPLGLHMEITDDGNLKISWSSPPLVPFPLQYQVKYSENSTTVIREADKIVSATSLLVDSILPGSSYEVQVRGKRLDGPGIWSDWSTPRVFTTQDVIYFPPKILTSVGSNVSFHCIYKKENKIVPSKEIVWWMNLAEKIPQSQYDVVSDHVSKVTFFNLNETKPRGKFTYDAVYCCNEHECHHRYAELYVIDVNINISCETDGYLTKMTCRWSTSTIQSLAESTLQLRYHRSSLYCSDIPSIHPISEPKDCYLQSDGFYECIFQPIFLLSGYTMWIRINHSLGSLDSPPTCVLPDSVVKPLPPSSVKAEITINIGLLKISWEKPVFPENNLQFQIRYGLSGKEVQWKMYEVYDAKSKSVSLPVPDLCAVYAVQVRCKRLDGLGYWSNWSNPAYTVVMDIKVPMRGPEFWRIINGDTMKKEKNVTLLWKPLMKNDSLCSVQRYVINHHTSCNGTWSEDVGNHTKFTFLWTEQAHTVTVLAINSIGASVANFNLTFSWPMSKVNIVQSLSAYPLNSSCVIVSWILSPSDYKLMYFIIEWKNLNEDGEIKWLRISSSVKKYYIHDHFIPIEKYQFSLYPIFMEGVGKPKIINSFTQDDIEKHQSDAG
Nature of the experiment: phage antigen-binding ELISA. In general terms: An ELISA detects its analyte on a solid surface through an enzyme-linked reagent.

B1: agonist antibody clone #17 scFv (scFv)
scFv: QVRLQQSGGGLVQPGRSLRLSCAASGFTFDDYAMHWVRQAPGKGLEWVSGMTWNSGSIGYADSVKGRFTISRDNAKNSLYLQMNSLRAEDTAVYYCAREPHNTDAFDIWGRGTLVTVSSGGGGPGGGGSGGGGSDVVMTQSPSFLSAFVGDTITITCRASQGIYNYLAWYQQKPGKAPKLLIYAASTLQSGVPSRFSGSGSGTEFTLTISSLQPEDFGTYYCQQLISYPLTFGGGTKVEIK
notes: Human scFv from a phage library; tested as scFv phage and as soluble scFv
With B1, the binding result is recorded as “binds”.

B2: agonist antibody clone #3 scFv (scFv)
scFv: EVQLVQSGAEVKKPGASVKVSCKASGYTFTGYYMYWVRQAPGQGLEWMGWINPNSGGTNYAQKFQGRVTMTRDTSIGTAYMELSRLSSDDTAVYYCARDRYYGSSAYHRGSYYMDVWGRGTLVTVSSGGGGTGGGGSGGGGSSELTQDPAVSVALGQTVRITCQGDSLRSYYASWYQQKPGQAPVLVIYGKNNRPSGIPDRFSGSSSGNTASLTITGAQAEDEADYYCNSRDSSGNHVVFGGGTKLTVL
notes: Human scFv from a phage library
Take B2: the binding result was “binds”.
